Source: paper PMC10940318, “Targeted intracellular delivery of dimeric STINGa by two pHLIP peptides for treatment of solid tumors” (Frontiers in Pharmacology, 2024)

Test: pH-dependent insertion into POPC liposome bilayer monitored by CD
Type: physicochemical
Details: CD ellipticity vs pH, 7 µM agent, 1.4 mM POPC, 25°C, Henderson-Hasselbalch fit
Method: The interactions of pHLIP-mMSA and 2pHLIP-dMSA with liposomes were investigated by recording the construct’s fluorescence and circular dichroism (CD) using a PC1 spectrofluorometer (ISS) and a MOS-450 spectrometer (Bio-Logic Science Instruments), respectively, with temperature control set to 25°C. Liposomes, constituting of large unilamellar vesicles were prepared by extrusion. 1-palmitoyl-2-oleoyl-sn-glycero-3-phosphocholine (POPC) lipids (Avanti Polar Lipids) in chloroform were desolvated on a rotary evaporator and dried under vacuum for a minimum of 2 h. The phospholipid film was rehydrated in 2 mM citrate phosphate buffer, pH 7.4, vortexed, and passed through the extruder (using a 50 nm membrane pore size) 21 times.
Fluorescence spectra were recorded from 310 nm to 390 nm at an excitation wavelength of 295 nm and 1.0 mm sized slits. […] CD spectra were recorded from 190 to 260 nm with a step size of 1 nm. […]
The pH-dependent insertion of pHLIP-mMSA or 2pHLIP-dMSA into the lipid bilayer of POPC liposomes was studied by monitoring changes in the molar ellipticity as a function of pH. After the addition of aliquots of citric acid, the pHs of solutions containing pHLIP-mMSA/2pHLIP-dMSA and POPC liposomes were measured using an Orion PerHecT ROSS Combination pH Micro Electrode and an Orion Dual Star pH and ISE Benchtop Meter. […]

ADQDNPWRAYLDLLFPTDTLLLDLLWCG [2pHLIP-dMSA]
cooperativity (n) of insertion into POPC bilayer: 1.2
pK (mid-point) of insertion into POPC bilayer: 6.0
